From the supplement of paper PMC10065799, “High-throughput profiling of sequence recognition by tyrosine kinases and SH2 domains using bacterial peptide display” (eLife, 2023)

Tested on: AncSZ
Assay: phosphorylation enrichment, bacterial display (enrichment ratio); higher = better substrate or ligand; peptides without Tyr show the background
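Further: 11-residue human phosphosite peptides and single-mutation variants displayed on the E. coli surface, counted by deep sequencing, each peptide's frequency after selection divided by its frequency in the unselected input library; frequency after pTyr selection over input frequency; kinase dosed for 20-30% of maximal phosphorylation in three min.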

| Sequence | phosphorylation enrichment |
| --- | --- |
| PVQAAYRKVVA [HBB_Y131_Q132R] | 0.502 |
| GTVRDYPDFNP [ANXA3_Y15_S19N] | 0.785 |
| LAIEWYVVVCK [RHO_Y136_R135W] | 2.49 |
| IHETTYNSIMK [ACTA1_Y281] | 0.475 |
| VIKDKYPQARF [APTX_Y209_K211Q_YF] | 0.453 |
| ERQIRYLNHQL [CEP152_Y268] | 0.557 |
| HLSPEYKQNEI [GJB1_Y243_R238H] | 0.966 |
| FDDIAHIRKTL [PIK3CA_Y1021_Y1021H] | 0.688 |
| SIKDKYVTAVF [KCNH2_Y611_L615V_YF] | 0.667 |
| KNKLNYTLPQD [NRAP_Y523] | 0.584 |
| DVCKKYAEAKD [ALB_Y343_N342K] | 1.24 |
| GSLEDYVRETN [GIMAP6_Y176] | 1 |
| KKHIPYRQHKS [CSNK1G2_Y206_E208Q] | 2.09 |
| RPYVYYYSYLL [PTEN_Y177_R173P] | 1.51 |
| PVKDGYQMAQP [CSF1R_Y873_L868P] | 0.682 |
| KNITEYCRHLI [RECQL_Y492_D495H] | 0.726 |
| RPSELYYSKIS [SMG1_Y2253_G2258S] | 1.79 |

| Sequence | phosphorylation enrichment |
| --- | --- |
| FSGDFYRIQGR [DDR2_Y741_YF] | 0.723 |
| NTCNRYCRDEI [ITGB3_Y660] | 0.794 |
| LTDTVYSSSSA [OR4C12_Y71_I67T] | 1.12 |
| AEEKEYHAEGG [EGFR_Y869] | 1.09 |
| SIKDKYVTVLY [KCNH2_Y611_A614V] | 0.836 |
| DPASAYADEVK [ETNPPL_Y189_S185P] | 1.06 |
| PTTKTYFRHFD [HBA1_Y43_P45R] | 0.556 |
| LLNAIYLSAKR [SERPING1_Y294_W299R] | 1.58 |
| TENAGYYFRVS | 1.44 |
| GSRGKYSSGFH [ATM_Y332_R337H] | 0.464 |
| HILQLYRCREE [ALPK3_Y342_T338I] | 0.945 |
| RPSELYFSKIG [SMG1_Y2253_YF] | 0.605 |
| KVMANYMYKAG [MAML2_Y513] | 0.617 |
| KPAFSYTSSST [SIM1_Y356] | 1.01 |
| EERKTYVNTML [TEK_Y1102_T1106M] | 0.71 |
| DAAEDYAEGVR [DHODH_Y194] | 1.21 |

Tested on: Fer (mouse)
Assay: as above

| Sequence | phosphorylation enrichment |
| --- | --- |
| PVQAAYRKVVA [HBB_Y131_Q132R] | 0.339 |
| GTVRDYPDFNP [ANXA3_Y15_S19N] | 0.407 |
| LAIEWYVVVCK [RHO_Y136_R135W] | 0.847 |
| IHETTYNSIMK [ACTA1_Y281] | 0.414 |
| VIKDKYPQARF [APTX_Y209_K211Q_YF] | 0.328 |
| ERQIRYLNHQL [CEP152_Y268] | 0.347 |
| HLSPEYKQNEI [GJB1_Y243_R238H] | 0.418 |
| FDDIAHIRKTL [PIK3CA_Y1021_Y1021H] | 0.433 |
| SIKDKYVTAVF [KCNH2_Y611_L615V_YF] | 0.523 |
| KNKLNYTLPQD [NRAP_Y523] | 0.39 |
| DVCKKYAEAKD [ALB_Y343_N342K] | 0.546 |
| GSLEDYVRETN [GIMAP6_Y176] | 0.398 |
| KKHIPYRQHKS [CSNK1G2_Y206_E208Q] | 2.37 |
| RPYVYYYSYLL [PTEN_Y177_R173P] | 0.931 |
| PVKDGYQMAQP [CSF1R_Y873_L868P] | 0.591 |
| KNITEYCRHLI [RECQL_Y492_D495H] | 0.533 |
| RPSELYYSKIS [SMG1_Y2253_G2258S] | 2.25 |

| Sequence | phosphorylation enrichment |
| --- | --- |
| FSGDFYRIQGR [DDR2_Y741_YF] | 0.393 |
| NTCNRYCRDEI [ITGB3_Y660] | 0.43 |
| LTDTVYSSSSA [OR4C12_Y71_I67T] | 1.69 |
| AEEKEYHAEGG [EGFR_Y869] | 0.572 |
| SIKDKYVTVLY [KCNH2_Y611_A614V] | 0.512 |
| DPASAYADEVK [ETNPPL_Y189_S185P] | 0.495 |
| PTTKTYFRHFD [HBA1_Y43_P45R] | 0.312 |
| LLNAIYLSAKR [SERPING1_Y294_W299R] | 0.85 |
| TENAGYYFRVS | 0.677 |
| GSRGKYSSGFH [ATM_Y332_R337H] | 0.409 |
| HILQLYRCREE [ALPK3_Y342_T338I] | 0.556 |
| RPSELYFSKIG [SMG1_Y2253_YF] | 0.421 |
| KVMANYMYKAG [MAML2_Y513] | 0.388 |
| KPAFSYTSSST [SIM1_Y356] | 0.447 |
| EERKTYVNTML [TEK_Y1102_T1106M] | 0.42 |
| DAAEDYAEGVR [DHODH_Y194] | 0.629 |

Molecular target: Fyn (UniProt P06241)
Sequence (P06241 whole entry, looked up): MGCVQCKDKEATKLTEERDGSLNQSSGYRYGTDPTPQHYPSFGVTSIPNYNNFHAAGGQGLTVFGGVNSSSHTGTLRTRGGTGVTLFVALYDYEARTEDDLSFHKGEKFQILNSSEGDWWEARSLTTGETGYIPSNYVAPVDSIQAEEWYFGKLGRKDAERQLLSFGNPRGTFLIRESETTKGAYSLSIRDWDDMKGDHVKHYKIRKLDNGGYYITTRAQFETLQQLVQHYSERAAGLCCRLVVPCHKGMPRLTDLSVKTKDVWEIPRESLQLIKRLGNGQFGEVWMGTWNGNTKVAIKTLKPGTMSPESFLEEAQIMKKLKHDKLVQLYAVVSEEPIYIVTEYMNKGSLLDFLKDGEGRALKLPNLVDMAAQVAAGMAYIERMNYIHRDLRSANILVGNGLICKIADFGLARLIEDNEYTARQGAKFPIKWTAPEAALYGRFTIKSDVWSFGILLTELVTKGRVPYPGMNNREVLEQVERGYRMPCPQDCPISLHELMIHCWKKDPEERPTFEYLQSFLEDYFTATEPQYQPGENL
Assay: as above

| Sequence | phosphorylation enrichment |
| --- | --- |
| PVQAAYRKVVA [HBB_Y131_Q132R] | 0.407 |
| GTVRDYPDFNP [ANXA3_Y15_S19N] | 0.404 |
| LAIEWYVVVCK [RHO_Y136_R135W] | 0.972 |
| IHETTYNSIMK [ACTA1_Y281] | 0.746 |
| VIKDKYPQARF [APTX_Y209_K211Q_YF] | 0.35 |
| ERQIRYLNHQL [CEP152_Y268] | 0.396 |
| HLSPEYKQNEI [GJB1_Y243_R238H] | 0.594 |
| FDDIAHIRKTL [PIK3CA_Y1021_Y1021H] | 0.538 |
| SIKDKYVTAVF [KCNH2_Y611_L615V_YF] | 0.543 |
| KNKLNYTLPQD [NRAP_Y523] | 0.372 |
| DVCKKYAEAKD [ALB_Y343_N342K] | 0.639 |
| GSLEDYVRETN [GIMAP6_Y176] | 0.468 |
| KKHIPYRQHKS [CSNK1G2_Y206_E208Q] | 1.08 |
| RPYVYYYSYLL [PTEN_Y177_R173P] | 1.42 |
| PVKDGYQMAQP [CSF1R_Y873_L868P] | 0.433 |
| KNITEYCRHLI [RECQL_Y492_D495H] | 0.433 |
| RPSELYYSKIS [SMG1_Y2253_G2258S] | 1.4 |

| Sequence | phosphorylation enrichment |
| --- | --- |
| FSGDFYRIQGR [DDR2_Y741_YF] | 0.488 |
| NTCNRYCRDEI [ITGB3_Y660] | 0.485 |
| LTDTVYSSSSA [OR4C12_Y71_I67T] | 2.53 |
| AEEKEYHAEGG [EGFR_Y869] | 0.536 |
| SIKDKYVTVLY [KCNH2_Y611_A614V] | 0.598 |
| DPASAYADEVK [ETNPPL_Y189_S185P] | 0.492 |
| PTTKTYFRHFD [HBA1_Y43_P45R] | 0.393 |
| LLNAIYLSAKR [SERPING1_Y294_W299R] | 0.86 |
| TENAGYYFRVS | 0.407 |
| GSRGKYSSGFH [ATM_Y332_R337H] | 0.421 |
| HILQLYRCREE [ALPK3_Y342_T338I] | 0.65 |
| RPSELYFSKIG [SMG1_Y2253_YF] | 0.546 |
| KVMANYMYKAG [MAML2_Y513] | 0.404 |
| KPAFSYTSSST [SIM1_Y356] | 0.578 |
| EERKTYVNTML [TEK_Y1102_T1106M] | 0.44 |
| DAAEDYAEGVR [DHODH_Y194] | 0.542 |

Molecular target: EPHB2 (UniProt P29323)
Sequence (P29323 whole entry, looked up): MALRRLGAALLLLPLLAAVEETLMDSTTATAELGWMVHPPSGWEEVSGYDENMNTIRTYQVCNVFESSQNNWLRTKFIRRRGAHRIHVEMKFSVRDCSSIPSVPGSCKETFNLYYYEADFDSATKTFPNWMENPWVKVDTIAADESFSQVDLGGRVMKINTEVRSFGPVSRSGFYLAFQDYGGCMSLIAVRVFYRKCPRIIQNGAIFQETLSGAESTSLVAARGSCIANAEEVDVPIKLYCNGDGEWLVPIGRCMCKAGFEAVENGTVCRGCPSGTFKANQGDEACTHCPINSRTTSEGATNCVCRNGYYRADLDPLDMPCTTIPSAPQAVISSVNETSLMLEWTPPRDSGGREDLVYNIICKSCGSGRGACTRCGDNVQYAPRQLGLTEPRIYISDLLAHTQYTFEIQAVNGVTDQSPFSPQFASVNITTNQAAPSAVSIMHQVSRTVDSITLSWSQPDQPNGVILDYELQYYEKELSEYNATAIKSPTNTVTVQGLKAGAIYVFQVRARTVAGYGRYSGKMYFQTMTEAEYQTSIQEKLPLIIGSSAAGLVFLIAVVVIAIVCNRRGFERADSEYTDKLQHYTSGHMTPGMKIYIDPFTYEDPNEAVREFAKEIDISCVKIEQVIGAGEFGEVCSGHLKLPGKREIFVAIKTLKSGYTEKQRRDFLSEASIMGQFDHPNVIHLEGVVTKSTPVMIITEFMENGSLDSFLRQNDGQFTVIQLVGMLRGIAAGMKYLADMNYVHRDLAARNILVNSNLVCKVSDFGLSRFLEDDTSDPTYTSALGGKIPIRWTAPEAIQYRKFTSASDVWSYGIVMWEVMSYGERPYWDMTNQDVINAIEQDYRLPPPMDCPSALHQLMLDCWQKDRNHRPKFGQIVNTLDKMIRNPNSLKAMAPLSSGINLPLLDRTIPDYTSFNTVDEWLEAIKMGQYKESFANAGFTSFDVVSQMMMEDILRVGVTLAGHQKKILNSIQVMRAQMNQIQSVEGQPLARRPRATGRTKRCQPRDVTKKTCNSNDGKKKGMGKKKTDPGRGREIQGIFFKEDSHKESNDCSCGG
Assay: as above

| Sequence | phosphorylation enrichment |
| --- | --- |
| PVQAAYRKVVA [HBB_Y131_Q132R] | 0.237 |
| GTVRDYPDFNP [ANXA3_Y15_S19N] | 0.431 |
| LAIEWYVVVCK [RHO_Y136_R135W] | 1.33 |
| IHETTYNSIMK [ACTA1_Y281] | 0.338 |
| VIKDKYPQARF [APTX_Y209_K211Q_YF] | 0.326 |
| ERQIRYLNHQL [CEP152_Y268] | 0.354 |
| HLSPEYKQNEI [GJB1_Y243_R238H] | 1.33 |
| FDDIAHIRKTL [PIK3CA_Y1021_Y1021H] | 0.529 |
| SIKDKYVTAVF [KCNH2_Y611_L615V_YF] | 0.475 |
| KNKLNYTLPQD [NRAP_Y523] | 0.436 |
| DVCKKYAEAKD [ALB_Y343_N342K] | 0.646 |
| GSLEDYVRETN [GIMAP6_Y176] | 0.573 |
| KKHIPYRQHKS [CSNK1G2_Y206_E208Q] | 1.36 |
| RPYVYYYSYLL [PTEN_Y177_R173P] | 1.39 |
| PVKDGYQMAQP [CSF1R_Y873_L868P] | 0.474 |
| KNITEYCRHLI [RECQL_Y492_D495H] | 0.436 |
| RPSELYYSKIS [SMG1_Y2253_G2258S] | 1.31 |

| Sequence | phosphorylation enrichment |
| --- | --- |
| FSGDFYRIQGR [DDR2_Y741_YF] | 0.439 |
| NTCNRYCRDEI [ITGB3_Y660] | 0.427 |
| LTDTVYSSSSA [OR4C12_Y71_I67T] | 0.374 |
| AEEKEYHAEGG [EGFR_Y869] | 0.593 |
| SIKDKYVTVLY [KCNH2_Y611_A614V] | 0.506 |
| DPASAYADEVK [ETNPPL_Y189_S185P] | 0.469 |
| PTTKTYFRHFD [HBA1_Y43_P45R] | 0.409 |
| LLNAIYLSAKR [SERPING1_Y294_W299R] | 0.846 |
| TENAGYYFRVS | 1.02 |
| GSRGKYSSGFH [ATM_Y332_R337H] | 0.3 |
| HILQLYRCREE [ALPK3_Y342_T338I] | 0.705 |
| RPSELYFSKIG [SMG1_Y2253_YF] | 0.457 |
| KVMANYMYKAG [MAML2_Y513] | 0.533 |
| KPAFSYTSSST [SIM1_Y356] | 0.533 |
| EERKTYVNTML [TEK_Y1102_T1106M] | 0.442 |
| DAAEDYAEGVR [DHODH_Y194] | 0.671 |
